# B1: HDV Ribozyme (parent)
# chain: GGCCGGCAUGGUCCCAGCCUCCUCGCUGGCGCCGGCUGGGCAACAUUCCGAGGGGACCGUCCCCUCGGUAAUGGCGAAUGGGACCCA
# Variants of: B1
# Experiment: self-cleavage, relative activity (ratio to wild type); higher = more cleavage; co-transcriptional
row,Variant,self-cleavage
1,GGCCGGCAUGGUCCCAGCCUCCUCGCUGGCGCCGGCUGGGCAACAUUCCGAUGGGACCGUCCCCUCGGUAACGGCGAAUGGGACCCA [G52U U72C],0.426
2,GGCCGGCAUGGUCCCAGCCUCCUCGCUGGCGCCGGCUGGGCAACAUUCCGAUGGGACCGUCCCCUCGGUAAGGGCGAAUGGGACCCA [G52U U72G],0.396
3,GGCCGGCAUGGUCCCAGCCUCCUCGCUGGCGCCGGCUGGGCAACAUUCCGAGAGGACCGUCCCCUCGGUAUUGGCGAAUGGGACCCA [G53A A71U],0.904
4,GGCCGGCAUGGUCCCAGCCUCCUCGCUGGCGCCGGCUGGGCAACAUUCCGAUGGGACCGCCCCCUCGGUAAUGGCGAAUGGGACCCA [G52U U60C],0.961
5,GGCCGGCAUGGUCCCAGCCUCCUCGCUGGCGCCGGCUGGGCAACAUUCCGAGAGGACCGUUCCCUCGGUAAUGGCGAAUGGGACCCA [G53A C61U],0.99
6,GGCCGGCAUGGUCCCAGCCUCCUCGCUGGCGCCGGCUGGGCAACAUUCCGAGAGGACCGUACCCUCGGUAAUGGCGAAUGGGACCCA [G53A C61A],0.987
7,GGCCGGCAUGGUCCCAGCCUCCUCGCUGGCGCCGGCUGGGCAACAUUCCGAGAGGACCGUCCCCUCGGUGAUGGCGAAUGGGACCCA [G53A A70G],1.07
8,GGCCGGCAUGGUCCCAGCCUCCUCGCUGGCGCCGGCUGGGCAACAUUCCGAGAGGAACGUCCCCUCGGUAAUGGCGAAUGGGACCCA [G53A C57A],0.866
9,GGCCGGCAUGGUCCCAGCCUCCUCGCUGGCGCCGGCUGGGCAACAUUCCGAGAGGAUCGUCCCCUCGGUAAUGGCGAAUGGGACCCA [G53A C57U],1.06
10,GGCCGGCAUGGUCCCAGCCUCCUCGCUGGCGCCGGCUGGGCAACAUUCCGAGAGGACCGUCCCCUCGGUAAUGGCGAAUGGGACUCA [G53A C85U],0.872
11,GGCCGGCAUGGUCCCAGCCUCCUCGCUGGCGCCGGCUGGGCAACAUUCCGAUGGGACCGUCCCCUCGUUAAUGGCGAAUGGGACCCA [G52U G68U],0.415
12,GGCCGGCAUGGUCCCAGCCUCCUCGCUGGCGCCGGCUGGGCAACAUUCCGAUGGGACCGUCCCCUCGCUAAUGGCGAAUGGGACCCA [G52U G68C],0.185
13,GGCCGGCAUGGUCCCAGCCUCCUCGCUGGCGCCGGCUGGGCAACAUUCCGAGAGGACCGUCCCCUCGGUAAGGGCGAAUGGGACCCA [G53A U72G],0.429
14,GGCCGGCAUGGUCCCAGCCUCCUCGCUGGCGCCGGCUGGGCAACAUUCCGAGAGGACCGUCCCCUCGGUAACGGCGAAUGGGACCCA [G53A U72C],0.731
15,GGCCGGCAUGGUCCCAGCCUCCUCGCUGGCGCCGGCUGGGCAACAUUCCGAGAGGACCGUCCCCUCGGUAAUGGCGAAUGGGAGCCA [G53A C84G],0.85
16,GGCCGGCAUGGUCCCAGCCUCCUCGCUGGCGCCGGCUGGGCAACAUUCCGAGAGGACCGUCCCCCCGGUAAUGGCGAAUGGGACCCA [G53A U65C],0.815
17,GGCCGGCAUGGUCCCAGCCUCCUCGCUGGCGCCGGCUGGGCAACAUUCCGAUGGGACCGUCCCCUCGGGAAUGGCGAAUGGGACCCA [G52U U69G],1.19
18,GGCCGGCAUGGUCCCAGCCUCCUCGCUGGCGCCGGCUGGGCAACAUUCCGAGAGGACCGUCUCCUCGGUAAUGGCGAAUGGGACCCA [G53A C62U],0.926
19,GGCCGGCAUGGUCCCAGCCUCCUCGCUGGCGCCGGCUGGGCAACAUUCCGAGAGGACCGUCCCCUCGGUAAUGUCGAAUGGGACCCA [G53A G74U],0.59
20,GGCCGGCAUGGUCCCAGCCUCCUCGCUGGCGCCGGCUGGGCAACAUUCCGAGAGGACCGUCCCCUCGGUAAUGCCGAAUGGGACCCA [G53A G74C],0.265
21,GGCCGGCAUGGUCCCAGCCUCCUCGCUGGCGCCGGCUGGGCAACAUUCCGAGAGGACCUUCCCCUCGGUAAUGGCGAAUGGGACCCA [G53A G59U],0.862
22,GGCCGGCAUGGUCCCAGCCUCCUCGCUGGCGCCGGCUGGGCAACAUUCCGAGAGGACCCUCCCCUCGGUAAUGGCGAAUGGGACCCA [G53A G59C],0.872

row,Variant,self-cleavage
1,GGCCGGCAUGGUCCCAGCCUCCUCGCUGGCGCCGGCUGGGCAACAUUCCGAUGGGACCGUCCCCUCAGUAAUGGCGAAUGGGACCCA [G52U G67A],0.265
2,GGCCGGCAUGGUCCCAGCCUCCUCGCUGGCGCCGGCUGGGCAACAUUCCGAUGGGACCGUCCCCUCGGUAAUGGCCAAUGGGACCCA [G52U G76C],0.921
3,GGCCGGCAUGGUCCCAGCCUCCUCGCUGGCGCCGGCUGGGCAACAUUCCGAUGGGACCGUCCCCUCGGUAAUGGCUAAUGGGACCCA [G52U G76U],1.05
4,GGCCGGCAUGGUCCCAGCCUCCUCGCUGGCGCCGGCUGGGCAACAUUCCGAGAGGACCGUCCCCUCGGUAAUGGCGAAUGGGACCGA [G53A C86G],1.1
5,GGCCGGCAUGGUCCCAGCCUCCUCGCUGGCGCCGGCUGGGCAACAUUCCGAGAGGACCGUCCCCUCGGUAAUGGCGAAUGGGACCAA [G53A C86A],1.16
6,GGCCGGCAUGGUCCCAGCCUCCUCGCUGGCGCCGGCUGGGCAACAUUCCGAGAGGACCGUCCCCUCGGUAAUGGCGAUUGGGACCCA [G53A A78U],0.277
7,GGCCGGCAUGGUCCCAGCCUCCUCGCUGGCGCCGGCUGGGCAACAUUCCGAGAGGACCGUCCCCUCGGUAAUGGCGAGUGGGACCCA [G53A A78G],0.618
8,GGCCGGCAUGGUCCCAGCCUCCUCGCUGGCGCCGGCUGGGCAACAUUCCGAGAGGACCGUCCCCUCGGUAAUGGCGAACGGGACCCA [G53A U79C],0.376
9,GGCCGGCAUGGUCCCAGCCUCCUCGCUGGCGCCGGCUGGGCAACAUUCCGAGAGGACCGUCCCCUCGGUAAUGGCGAAUGGGGCCCA [G53A A83G],0.802
10,GGCCGGCAUGGUCCCAGCCUCCUCGCUGGCGCCGGCUGGGCAACAUUCCGAGAGGACCGUCCCCUCGGUAAUGGCGAAUGGGUCCCA [G53A A83U],0.521
11,GGCCGGCAUGGUCCCAGCCUCCUCGCUGGCGCCGGCUGGGCAACAUUCCGAGAGGACCGUCCCCUCGGUAAUGGCGAAUGGGCCCCA [G53A A83C],0.464
12,GGCCGGCAUGGUCCCAGCCUCCUCGCUGGCGCCGGCUGGGCAACAUUCCGAGACGACCGUCCCCUCGGUAAUGGCGAAUGGGACCCA [G53A G54C],0.857
13,GGCCGGCAUGGUCCCAGCCUCCUCGCUGGCGCCGGCUGGGCAACAUUCCGAGAGGACCGUCCCCUCGGUAAUGGCGAAUGGGACCCA [G53A],1
14,GGCCGGCAUGGUCCCAGCCUCCUCGCUGGCGCCGGCUGGGCAACAUUCCGAGAGGACCGUCCCCUCGGUAAUGGCGAAUGGGACCCG [G53A A87G],0.995
15,GGCCGGCAUGGUCCCAGCCUCCUCGCUGGCGCCGGCUGGGCAACAUUCCGAGAGGACCGUCCCCUCGGUAAUGGCGAAUUGGACCCA [G53A G80U],0.234
16,GGCCGGCAUGGUCCCAGCCUCCUCGCUGGCGCCGGCUGGGCAACAUUCCGAGAGGACCGUCCCCUCGGUAAUGGCGAAUGAGACCCA [G53A G81A],0.456
17,GGCCGGCAUGGUCCCAGCCUCCUCGCUGGCGCCGGCUGGGCAACAUUCCGAGAGGACCGUCCCCUCGGUAAUGGCGAAUGUGACCCA [G53A G81U],0.272
18,GGCCGGCAUGGUCCCAGCCUCCUCGCUGGCGCCGGCUGGGCAACAUUCCGAUGGGACCGUCCCCUCGGUAAUGGCGAAUUGGACCCA [G52U G80U],0.312
19,GGCCGGCAUGGUCCCAGCCUCCUCGCUGGCGCCGGCUGGGCAACAUUCCGAUGGGACCGUCCCCUCGGUAAUCGCGAAUGGGACCCA [G52U G73C],0.155
20,GGCCGGCAUGGUCCCAGCCUCCUCGCUGGCGCCGGCUGGGCAACAUUCCGAUGGGACCGUCCCCUCGGUAAUUGCGAAUGGGACCCA [G52U G73U],0.305
21,GGCCGGCAUGGUCCCAGCCUCCUCGCUGGCGCCGGCUGGGCAACAUUCCGAGAGUACCGUCCCCUCGGUAAUGGCGAAUGGGACCCA [G53A G55U],1.17
22,GGCCGGCAUGGUCCCAGCCUCCUCGCUGGCGCCGGCUGGGCAACAUUCCGAUGGGACCCUCCCCUCGGUAAUGGCGAAUGGGACCCA [G52U G59C],0.765

row,Variant,self-cleavage
1,GGCCGGCAUGGUCCCAGCCUCCUCGCUGGCGCCGGCUGGGCAACAUUCCGAGAGGACCGUCCCCUCGGUAAUGGGGAAUGGGACCCA [G53A C75G],0.156
2,GGCCGGCAUGGUCCCAGCCUCCUCGCUGGCGCCGGCUGGGCAACAUUCCGAGAGGACCGUCCGCUCGGUAAUGGCGAAUGGGACCCA [G53A C63G],1.01
3,GGCCGGCAUGGUCCCAGCCUCCUCGCUGGCGCCGGCUGGGCAACAUUCCGAGAGGACCGUCCACUCGGUAAUGGCGAAUGGGACCCA [G53A C63A],0.819
4,GGCCGGCAUGGUCCCAGCCUCCUCGCUGGCGCCGGCUGGGCAACAUUCCGAUGGGACCGUCCCCUCGGUAAUGCCGAAUGGGACCCA [G52U G74C],0.363
5,GGCCGGCAUGGUCCCAGCCUCCUCGCUGGCGCCGGCUGGGCAACAUUCCGAGAGGACCGUCCCCUCUGUAAUGGCGAAUGGGACCCA [G53A G67U],0.884
6,GGCCGGCAUGGUCCCAGCCUCCUCGCUGGCGCCGGCUGGGCAACAUUCCGAGAGGACCGACCCCUCGGUAAUGGCGAAUGGGACCCA [G53A U60A],0.938
7,GGCCGGCAUGGUCCCAGCCUCCUCGCUGGCGCCGGCUGGGCAACAUUCCGAGAGGACCGGCCCCUCGGUAAUGGCGAAUGGGACCCA [G53A U60G],1.01
8,GGCCGGCAUGGUCCCAGCCUCCUCGCUGGCGCCGGCUGGGCAACAUUCCGAUGGGACCGUCCCCACGGUAAUGGCGAAUGGGACCCA [G52U U65A],0.82
9,GGCCGGCAUGGUCCCAGCCUCCUCGCUGGCGCCGGCUGGGCAACAUUCCGAGAGGACUGUCCCCUCGGUAAUGGCGAAUGGGACCCA [G53A C58U],0.987
10,GGCCGGCAUGGUCCCAGCCUCCUCGCUGGCGCCGGCUGGGCAACAUUCCGAGAGGACAGUCCCCUCGGUAAUGGCGAAUGGGACCCA [G53A C58A],0.962
11,GGCCGGCAUGGUCCCAGCCUCCUCGCUGGCGCCGGCUGGGCAACAUUCCGAGAGGACCGUCCCCUCGGGAAUGGCGAAUGGGACCCA [G53A U69G],1.04
12,GGCCGGCAUGGUCCCAGCCUCCUCGCUGGCGCCGGCUGGGCAACAUUCCGAGAGGACCGUCCCCUCGGCAAUGGCGAAUGGGACCCA [G53A U69C],1.11
13,GGCCGGCAUGGUCCCAGCCUCCUCGCUGGCGCCGGCUGGGCAACAUUCCGAGAGGACCGUCCCCUCGGAAAUGGCGAAUGGGACCCA [G53A U69A],1.03
14,GGCCGGCAUGGUCCCAGCCUCCUCGCUGGCGCCGGCUGGGCAACAUUCCGAUGGGACCGUCCCCUCGGUAAUGGCGAAUGCGACCCA [G52U G81C],0.298
15,GGCCGGCAUGGUCCCAGCCUCCUCGCUGGCGCCGGCUGGGCAACAUUCCGAGAGGACCGUCCCUUCGGUAAUGGCGAAUGGGACCCA [G53A C64U],0.968
16,GGCCGGCAUGGUCCCAGCCUCCUCGCUGGCGCCGGCUGGGCAACAUUCCGAGAGGACCGUCCCAUCGGUAAUGGCGAAUGGGACCCA [G53A C64A],0.639
17,GGCCGGCAUGGUCCCAGCCUCCUCGCUGGCGCCGGCUGGGCAACAUUCCGAUGGGACCGUCCCCUCGGUAAUGGCGAAUGGAACCCA [G52U G82A],0.277
18,GGCCGGCAUGGUCCCAGCCUCCUCGCUGGCGCCGGCUGGGCAACAUUCCGAUGGGACCGUCCCCUCGGUAAUGGCGAAAGGGACCCA [G52U U79A],0.759
19,GGCCGGCAUGGUCCCAGCCUCCUCGCUGGCGCCGGCUGGGCAACAUUCCGAGAGGACCGUCCCCUCGGUAAUGGCGCAUGGGACCCA [G53A A77C],0.251
20,GGCCGGCAUGGUCCCAGCCUCCUCGCUGGCGCCGGCUGGGCAACAUUCCGAGAGGACCGUCCCCUCGGUAAUGGCGGAUGGGACCCA [G53A A77G],0.916

# — the RNAGym collection of RNA variant scans (doi:10.7554/elife.80360)
